Assay results from publication PMC3355152, “Crystal Structures of Lsm3, Lsm4 and Lsm5/6/7 from Schizosaccharomyces pombe”.

T1: ScLsm3 (Saccharomyces cerevisiae, UniProt P57743 1-89)
T1 sequence: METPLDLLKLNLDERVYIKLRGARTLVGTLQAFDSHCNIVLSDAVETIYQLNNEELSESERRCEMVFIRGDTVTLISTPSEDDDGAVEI


How the values were obtained:
SpLsm5;SpLsm6;SpLsm7 = SpLsm5;SpLsm6;SpLsm7 (Schizosaccharomyces …, UniProt O42978;Q9UUI1;O74499 1-80;1-75;1-113, ||); experiment: fluorescence anisotropy; FA: 20 mM Hepes pH 7.5, 100 mM NaCl, 25 C, 0.1 uM RNA; SPR (Biacore 3000): 20 mM Hepes pH 7.5, 100 mM NaCl, 25 C, 1 uM protein; details: protein: recombinant;recombinant;recombinant; tags: N-terminal His6;none;; chain copies: 2;2;2; label: 5' 6-FAM; single strand
Chain of SpLsm5;SpLsm6;SpLsm7 (O42978 whole entry, chain 1 of 3): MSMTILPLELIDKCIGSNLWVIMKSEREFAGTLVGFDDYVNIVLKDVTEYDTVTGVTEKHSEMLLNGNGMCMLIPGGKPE
Chain of SpLsm5;SpLsm6;SpLsm7 (Q9UUI1 whole entry, chain 2 of 3): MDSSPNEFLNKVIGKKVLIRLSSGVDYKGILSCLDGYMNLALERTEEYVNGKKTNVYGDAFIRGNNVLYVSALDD
Chain of SpLsm5;SpLsm6;SpLsm7 (O74499 whole entry, chain 3 of 3): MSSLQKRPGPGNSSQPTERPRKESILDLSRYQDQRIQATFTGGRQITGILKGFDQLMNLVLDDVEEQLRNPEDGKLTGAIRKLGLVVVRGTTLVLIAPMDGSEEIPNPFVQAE

[1] = biological target: SpLsm2 (of SpLsm2/3);SpLsm3 (of SpLsm2/3) (Schizosaccharomyces …, UniProt O94408;Q9Y7M4 1-96;1-93, |); experiment: as above; details: protein: recombinant;recombinant; tags: N-terminal His6;none; label: 5' 6-FAM; single strand
Chain of SpLsm2 (of SpLsm2/3);SpLsm3 (of SpLsm2/3) (O94408 whole entry, chain 1 of 2): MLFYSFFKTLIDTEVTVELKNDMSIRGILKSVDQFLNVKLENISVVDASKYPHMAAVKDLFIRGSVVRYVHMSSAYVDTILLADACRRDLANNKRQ
Chain of SpLsm2 (of SpLsm2/3);SpLsm3 (of SpLsm2/3) (Q9Y7M4 whole entry, chain 2 of 2): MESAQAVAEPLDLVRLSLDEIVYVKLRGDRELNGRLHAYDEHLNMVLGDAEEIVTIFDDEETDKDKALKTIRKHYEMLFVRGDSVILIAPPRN

ScLsm3 = biological target: T1, ScLsm3; experiment: SPR; 1 uM protein; FA: 20 mM Hepes pH 7.5, 100 mM NaCl, 25 C, 0.1 uM RNA; SPR (Biacore 3000): 20 mM Hepes pH 7.5, 100 mM NaCl, 25 C, 1 uM protein; details: protein: recombinant; tags: His6 removed by PreScission; chain copies: 8; label: 5' biotin; single strand

Binder	Kd (SpLsm5;SpLsm6;SpLsm7)	Kd [1]	binding result (ScLsm3)
UUUUUUUUUUUUUUU (ssRNA) [U15 (FAM)]	52.5 ± 10 µM	4 ± 0.5 µM	
UUUUUUUUUUUUUUU (ssRNA) [U15 (biotin)]			no binding
